B1: 7G6-HCzu1-LCzu1 (antibody, human IgG1, kappa, V domains shown)
VH: QVQLVQSGAEVKKPGASVKVSCKASGYTFTTYWITWVRQAPGQGLEWMGDIYPGSSICNYNEKFKSRVTMTRDTSTSTVYMELSSLRSEDTAVYYCAREDGYDAWFAYWGQGTLVTVSS
VL: DVVMTQSPLSLPVTLGQPASISCRSSQSILHSNGNTYLEWFQQRPGQSPRRLIYKVSNRFSGVPDRFSGSGSGTDFTLKISRVEAEDVGVYYCFQGSHVPFTFGQGTKLEIKR
notes: humanized, human IgG1 kappa
B2: 7G6-HCzu1-LCzu2 (antibody, human IgG1, kappa, V domains shown)
VH: QVQLVQSGAEVKKPGASVKVSCKASGYTFTTYWITWVRQAPGQGLEWMGDIYPGSSICNYNEKFKSRVTMTRDTSTSTVYMELSSLRSEDTAVYYCAREDGYDAWFAYWGQGTLVTVSS
VL: DVVMTQSPLSLPVTLGQPASISCRSSQSILHSNGNTYLEWYQQRPGQSPRLLICKVSNRFSGVPDRFSGSGSGTDFTLKISRVEAEDVGVYYCFQGSHVPFTFGQGTKLEIKR
notes: humanized, human IgG1 kappa
B3: 7G6-HCzu2-LCzu1 (antibody, human IgG1, kappa, V domains shown)
VH: QVQLVQSGAEVKKPGASVKVSCKASGYTFTTYWITWVRQAPGQGLEWMGDIYPGSSICNYNEKFKSRVTMTVDTSTSTVYMELSSLRSEDTAVYYCAREDGYDAWFAYWGQGTLVTVSS
VL: DVVMTQSPLSLPVTLGQPASISCRSSQSILHSNGNTYLEWFQQRPGQSPRRLIYKVSNRFSGVPDRFSGSGSGTDFTLKISRVEAEDVGVYYCFQGSHVPFTFGQGTKLEIKR
notes: humanized, human IgG1 kappa
B4: 7G6-HCzu2-LCzu2 (antibody, human IgG1, kappa, V domains shown)
VH: QVQLVQSGAEVKKPGASVKVSCKASGYTFTTYWITWVRQAPGQGLEWMGDIYPGSSICNYNEKFKSRVTMTVDTSTSTVYMELSSLRSEDTAVYYCAREDGYDAWFAYWGQGTLVTVSS
VL: DVVMTQSPLSLPVTLGQPASISCRSSQSILHSNGNTYLEWYQQRPGQSPRLLICKVSNRFSGVPDRFSGSGSGTDFTLKISRVEAEDVGVYYCFQGSHVPFTFGQGTKLEIKR
notes: humanized, human IgG1 kappa
B5: 7G6-HCzu3-LCzu1 (antibody, human IgG1, kappa, V domains shown)
VH: QVQLVQSGAEVKKPGASVKVSCKASGYTFTTYWITWVRQAPGQGLEWMGDIYPGSSICNYNEKFKSRVTMTVDTSTSTAYMELSSLRSEDTAVYYCAREDGYDAWFAYWGQGTLVTVSS
VL: DVVMTQSPLSLPVTLGQPASISCRSSQSILHSNGNTYLEWFQQRPGQSPRRLIYKVSNRFSGVPDRFSGSGSGTDFTLKISRVEAEDVGVYYCFQGSHVPFTFGQGTKLEIKR
notes: humanized, human IgG1 kappa
B6: 7G6-HCzu3-LCzu2 (antibody, human IgG1, kappa, V domains shown)
VH: QVQLVQSGAEVKKPGASVKVSCKASGYTFTTYWITWVRQAPGQGLEWMGDIYPGSSICNYNEKFKSRVTMTVDTSTSTAYMELSSLRSEDTAVYYCAREDGYDAWFAYWGQGTLVTVSS
VL: DVVMTQSPLSLPVTLGQPASISCRSSQSILHSNGNTYLEWYQQRPGQSPRLLICKVSNRFSGVPDRFSGSGSGTDFTLKISRVEAEDVGVYYCFQGSHVPFTFGQGTKLEIKR
notes: humanized, human IgG1 kappa
B7: 7G6-HCzu3-LCzu6 (antibody, human IgG1, kappa, V domains shown)
VH: QVQLVQSGAEVKKPGASVKVSCKASGYTFTTYWITWVRQAPGQGLEWMGDIYPGSSICNYNEKFKSRVTMTVDTSTSTAYMELSSLRSEDTAVYYCAREDGYDAWFAYWGQGTLVTVSS
VL: DVVMTQSPLSLPVTLGQPASISCRSSQSILHSNGNTYLEWYQQRPGQSPRLLISKVSNRFSGVPDRFSGSGSGTDFTLKISRVEAEDVGVYYCFQGSHVPFTFGQGTKLEIKR
notes: humanized, human IgG1 kappa
B8: 7G6-HCzu4-LCzu1 (antibody, human IgG1, kappa, V domains shown)
VH: QVQLVQSGAEVKKPGASVKVSCKASGYTFTTYWITWVRQAPGQGLEWMGDIYPGSSICNYAQKFQGRVTMTVDTSTSTAYMELSSLRSEDTAVYYCAREDGYDAWFAYWGQGTLVTVSS
VL: DVVMTQSPLSLPVTLGQPASISCRSSQSILHSNGNTYLEWFQQRPGQSPRRLIYKVSNRFSGVPDRFSGSGSGTDFTLKISRVEAEDVGVYYCFQGSHVPFTFGQGTKLEIKR
notes: humanized, human IgG1 kappa
B9: 7G6-HCzu4-LCzu2 (antibody, human IgG1, kappa, V domains shown)
VH: QVQLVQSGAEVKKPGASVKVSCKASGYTFTTYWITWVRQAPGQGLEWMGDIYPGSSICNYAQKFQGRVTMTVDTSTSTAYMELSSLRSEDTAVYYCAREDGYDAWFAYWGQGTLVTVSS
VL: DVVMTQSPLSLPVTLGQPASISCRSSQSILHSNGNTYLEWYQQRPGQSPRLLICKVSNRFSGVPDRFSGSGSGTDFTLKISRVEAEDVGVYYCFQGSHVPFTFGQGTKLEIKR
notes: humanized, human IgG1 kappa
B10: 7G6-HCzu5-LCzu2 (antibody, human IgG1, kappa, V domains shown)
VH: QVQLVQSGAEVKKPGASVKVSCKASGYTFTTYWITWVRQAPGQGLEWMGDIYPGSSISNYNEKFKSRVTMTVDTSTSTAYMELSSLRSEDTAVYYCAREDGYDAWFAYWGQGTLVTVSS
VL: DVVMTQSPLSLPVTLGQPASISCRSSQSILHSNGNTYLEWYQQRPGQSPRLLICKVSNRFSGVPDRFSGSGSGTDFTLKISRVEAEDVGVYYCFQGSHVPFTFGQGTKLEIKR
notes: humanized, human IgG1 kappa
B11: 7G6-HCzu5-LCzu6 (antibody, human IgG1, kappa, V domains shown)
VH: QVQLVQSGAEVKKPGASVKVSCKASGYTFTTYWITWVRQAPGQGLEWMGDIYPGSSISNYNEKFKSRVTMTVDTSTSTAYMELSSLRSEDTAVYYCAREDGYDAWFAYWGQGTLVTVSS
VL: DVVMTQSPLSLPVTLGQPASISCRSSQSILHSNGNTYLEWYQQRPGQSPRLLISKVSNRFSGVPDRFSGSGSGTDFTLKISRVEAEDVGVYYCFQGSHVPFTFGQGTKLEIKR
notes: humanized, human IgG1 kappa
B12: 7G6-HCzu5-LCzu7 (antibody, human IgG1, kappa, V domains shown)
VH: QVQLVQSGAEVKKPGASVKVSCKASGYTFTTYWITWVRQAPGQGLEWMGDIYPGSSISNYNEKFKSRVTMTVDTSTSTAYMELSSLRSEDTAVYYCAREDGYDAWFAYWGQGTLVTVSS
VL: DVVMTQSPLSLPVTLGQPASISCRSSQSILHSNGNTYLEWFQQRPGQSPRRLISKVSNRFSGVPDRFSGSGSGTDFTLKISRVEAEDVGVYYCFQGSHVPFTFGQGTKLEIKR
notes: humanized, human IgG1 kappa
B13: 7G6-HCzu5-LCzu8 (antibody, human IgG1, kappa, V domains shown)
VH: QVQLVQSGAEVKKPGASVKVSCKASGYTFTTYWITWVRQAPGQGLEWMGDIYPGSSISNYNEKFKSRVTMTVDTSTSTAYMELSSLRSEDTAVYYCAREDGYDAWFAYWGQGTLVTVSS
VL: DVVMTQSPLSLPVTLGQPASISCRSSQSIVHSNGNTYLEWFQQRPGQSPRRLISKVSNRFSGVPDRFSGSGSGTDFTLKISRVEAEDVGVYYCFQGSHVPFTFGQGTKLEIKR
notes: humanized, human IgG1 kappa
B14: 7G6-HCzu5-LCzu10 (antibody, human IgG1, kappa, V domains shown)
VH: QVQLVQSGAEVKKPGASVKVSCKASGYTFTTYWITWVRQAPGQGLEWMGDIYPGSSISNYNEKFKSRVTMTVDTSTSTAYMELSSLRSEDTAVYYCAREDGYDAWFAYWGQGTLVTVSS
VL: DVVMTQSPLSLPVTLGQPASISCRSSQSIVHSNGNTYLEWFQQRPGQSPRRLIYKVSNRFSGVPDRFSGSGSGTDFTLKISRVEAEDVGVYYCFQGSHVPFTFGQGTKLEIKR
notes: humanized, human IgG1 kappa
B15: 7G6-HCzu5-LCzu21 (antibody, human IgG1, kappa, V domains shown)
VH: QVQLVQSGAEVKKPGASVKVSCKASGYTFTTYWITWVRQAPGQGLEWMGDIYPGSSISNYNEKFKSRVTMTVDTSTSTAYMELSSLRSEDTAVYYCAREDGYDAWFAYWGQGTLVTVSS
VL: DVVMTQSPLSLPVTLGQPASISCRSSQSILHSNGNTYLEWFQQRPGQSPRLLISKVSNRFSGVPDRFSGSGSGTDFTLKISRVEAEDVGVYYCFQGSHVPFTFGQGTKLEIKR
notes: humanized, human IgG1 kappa
B16: 7G6-HCzu5-LCzu22 (antibody, human IgG1, kappa, V domains shown)
VH: QVQLVQSGAEVKKPGASVKVSCKASGYTFTTYWITWVRQAPGQGLEWMGDIYPGSSISNYNEKFKSRVTMTVDTSTSTAYMELSSLRSEDTAVYYCAREDGYDAWFAYWGQGTLVTVSS
VL: DVVMTQSPLSLPVTLGQPASISCRSSQSILHSNGNTYLEWYQQRPGQSPRRLISKVSNRFSGVPDRFSGSGSGTDFTLKISRVEAEDVGVYYCFQGSHVPFTFGQGTKLEIKR
notes: humanized, human IgG1 kappa; also called 7G6-LCzu22
B17: 7G6-HCzu6-LCzu6 (antibody, human IgG1, kappa, V domains shown)
VH: QVQLVQSGAEVKKPGASVKVSCKASGYTFTTYWITWVRQAPGQGLEWMGDIYPGSSISNYNEKFKSRVTMTVDTSTSTVYMELSSLRSEDTAVYYCAREDGYDAWFAYWGQGTLVTVSS
VL: DVVMTQSPLSLPVTLGQPASISCRSSQSILHSNGNTYLEWYQQRPGQSPRLLISKVSNRFSGVPDRFSGSGSGTDFTLKISRVEAEDVGVYYCFQGSHVPFTFGQGTKLEIKR
notes: humanized, human IgG1 kappa

Target: T1, Human Tau 2N4R, wild type, recombinant full length (human, UniProt P10636 2-758)
T1 construct: Full length 2N4R isoform; monomer in SPR and ELISA; heparin-induced aggregates or seeds in the functional assays; also called Tau441; Tau-441
Assay: SPR BIAcore, mAb captured by anti-human IgG, Tau flowed, 1:1 Langmuir
Protocol: All experiments were performed using a BIAcore™ T-100 instrument (GE Healthcare). 10 μL anti-human IgG (monoclonal mouse anti-human Fc) from human antibody capture kit (GE Healthcare) was diluted to 25 μL/mL in 200 μL final immobilization buffer (10 mM sodium acetate, pH 5.0). The flow rate was set to 5 μL/min, flowpath 1. Fifty μL N-hydroxysuccinamide (NETS) and 50 μL 1-ethyl-3-(3-dimethylaminopropyl) carbidiimide (EDC) were mixed and injected for 420 sec to activate the CM5 chip surface. The diluted antibody was injected for 360 seconds followed by 1 M ethanolamine for 420 seconds. The flowpath was then switched to flowpath 2. A new EDC/NHS mixture was prepared and the procedure was repeated for flow cell 2. The surface was conditioned by 2 injections of 30 sec using flowpath 1, 2 at 30 μL/min of 3M MgCl₂. For the anti-mouse surface, 10 μL anti-mouse IgG (polyclonal rabbit anti-mouse IgG) from mouse antibody capture kit (GE Healthcare) was diluted to 30 μL/mL in 324 μL final immobilization buffer (10 mM sodium acetate, pH 5.0). The flow rate was set to 5 μL/min, flowpath 3. Fifty μL NHS and 50 μL EDC were mixed and injected for 420 sec to activate the chip surface. The diluted antibody was injected for 420 sec. 1 M ethanolamine was injected for 420 sec. Flow path was switched to flowpath 4. A new EDC/NHS mixture was prepared and the procedure was repeated for flow cell 4. The surface was conditioned by 2 injections of 30 sec using flowpath 3, 4 at 30 μL/min of 10 mM glycine, pH 1.7.
Binding of humanized and mouse antibodies were analyzed by surface plasmon resonance (BIAcore™) to determine their relative association rates (kₐ), dissociation rates (kd), and equilibrium binding constants (KD). Anti-mouse or anti-human antibodies were immobilized on a CM5 chip and sample mAbs were captured on the chip. 2N4R Tau was flowed over the chip and binding observed. The binding constants kₐ, kd, and KD were determined using a 1:1 Langmuir fitting model.

T1 sequence (P10636 other isoform, or with tags, fused parts or gaps limits assumed): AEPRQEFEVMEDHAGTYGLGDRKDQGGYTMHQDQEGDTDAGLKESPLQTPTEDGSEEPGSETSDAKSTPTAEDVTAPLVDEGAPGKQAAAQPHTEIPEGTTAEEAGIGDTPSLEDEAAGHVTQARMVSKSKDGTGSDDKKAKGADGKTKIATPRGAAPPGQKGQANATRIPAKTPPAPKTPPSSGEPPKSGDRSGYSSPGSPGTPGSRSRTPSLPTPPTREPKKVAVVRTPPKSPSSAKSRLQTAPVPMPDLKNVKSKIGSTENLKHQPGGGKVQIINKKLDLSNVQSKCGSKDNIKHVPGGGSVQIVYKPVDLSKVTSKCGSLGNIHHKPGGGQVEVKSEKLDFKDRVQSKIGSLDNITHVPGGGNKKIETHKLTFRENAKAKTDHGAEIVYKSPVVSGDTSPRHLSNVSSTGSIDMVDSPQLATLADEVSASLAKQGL

Row | Binder | Kd [pM] | koff [s⁻¹] | kon [M⁻¹ s⁻¹]
1 | B1 | 202 | 0.000519 | 2.57e+06
2 | B2 | 110 | 0.000241 | 2.2e+06
3 | B3 | 226 | 0.00064 | 2.83e+06
4 | B4 | 101 | 0.000214 | 2.12e+06
5 | B5 | 309 | 0.000856 | 2.77e+06
6 | B6 | 121 | 0.000242 | 2e+06
7 | B7 | 120 | 0.000227 | 1.9e+06
8 | B8 | 237 | 0.000847 | 3.57e+06
9 | B9 | 121 | 0.000242 | 2e+06
10 | B10 | 127 | 0.000237 | 1.86e+06
11 | B11 | 96.1 | 0.000206 | 2.14e+06
12 | B12 | 96.8 | 0.000304 | 3.14e+06
13 | B13 | 82.8 | 0.000298 | 3.6e+06
14 | B14 | 162 | 0.00053 | 3.27e+06
15 | B15 | 95 | 0.000278 | 2.93e+06
16 | B16 | 1480 | 0.00277 | 1.88e+06
17 | B17 | 96.1 | 0.000213 | 2.21e+06

— patent US20190112365A1 (EISAI R AND D MANAGEMENT, published 2019)
